Where a chain is given by its changes, count along the chain named.
T1: human pancreatic α-amylase (human, UniProt P04746)
T1 sequence: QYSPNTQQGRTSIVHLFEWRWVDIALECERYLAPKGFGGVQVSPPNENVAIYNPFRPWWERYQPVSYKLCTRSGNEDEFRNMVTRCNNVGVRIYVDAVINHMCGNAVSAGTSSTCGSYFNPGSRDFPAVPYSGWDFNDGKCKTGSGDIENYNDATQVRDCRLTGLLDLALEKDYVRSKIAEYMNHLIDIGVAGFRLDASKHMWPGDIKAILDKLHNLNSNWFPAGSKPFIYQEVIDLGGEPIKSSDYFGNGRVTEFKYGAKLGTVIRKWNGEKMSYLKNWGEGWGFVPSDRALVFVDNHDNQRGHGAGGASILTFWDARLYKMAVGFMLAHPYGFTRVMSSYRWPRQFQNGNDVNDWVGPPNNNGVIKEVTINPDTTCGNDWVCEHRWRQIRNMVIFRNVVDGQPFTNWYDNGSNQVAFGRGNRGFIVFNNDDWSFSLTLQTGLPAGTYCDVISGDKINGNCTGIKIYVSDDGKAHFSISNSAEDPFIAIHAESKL

B1: 0.26 AIa (other)
chain: SGPWMCYPGYAFKVPALPGCRPVLKLQCNGSQVPEAVLRDCCQQLADISEWCRCGALYSMLDSMYKEHGVQEGQAGTGAFPSCRREVVKLTAASITAVCKLPIVIDASGDGAYVCKGVAAYPDA
B2: 0.26 AIb (other)
chain: SGPWMCYPGYAFKVPALPGCRPVLKLQCNGSQVPEAVLRDCCQQLADISEWCRCGALYSMLDSMYKEHGVQEGQAGTGAFPSCRREVVKLTAASITAVCKLPIVIDASGDGAYVCKGVAAYP
B3: 0.19 AI (other)
chain: SGPWMCYPGQAFQVPALPACRPLLRLQCNGSQVPEAVLRDCCQQLAHISEWCRCGALYSMLDSMYKEHGAQEGQAGTGAFPRCRREVVKLTAASITAVCRLPIVVDASGDGAYVCKDVAAYPDA
B4: 0.53 AI (other)
chain: B3 chain with A19G, R25K, H47D, C52P, A70V, Q71S, R82S
B5: 0.28 AI (other)
chain: SGPWSWCNPATGYKVSALTGCRAMVKLQCVGSQVPEAVLRDCCQQLADINNEWCRCGDLSSMLRAVTQELGVREGKEVLPGCRKEVMKLTAASVPEVCKVPIPNPSGDRAGVCYGDWCAYPDV
B6: 0.53 AI: known wheat amylase inhibitor protein composed of two subunits, each identified as SEQ ID NO:4 (protein)
chain 1: B3 chain with A19G, R25K, H47D, C52P, A70V, Q71S, R82S
chain 2: B3 chain with A19G, R25K, H47D, C52P, A70V, Q71S, R82S

What was measured:
[1] = target: T1, human pancreatic α-amylase; test: cell-based or functional assay
[2] = system: human pancreatic α-amylase; test: Determination of inhibitory activity against human pancreatic α-amylase; format: biochemical; conditions: 1 U = amount inhibiting 50% of amylase activity, pH 6.9, 37° C., soluble starch
Procedure: The numerical values as given herein for the amylase inhibitory activity are determined by the following method, which are represented in terms of the inhibitory activity value against human pancreatic α-amylase.
Determination of inhibitory activity against human pancreatic α-amylase:
An aqueous solution of a sample and human pancreatic α-amylase were added to 20 mM piperazine-N,N'-bis(2-ethanesulfonic acid) buffer (pH 6.9) containing 50 mM NaCl, 5 mM CaCl2 and 0.02% egg white albumin. The mixture was allowed to stand at 37° C. for 30 min. and then mixed with 0.5 ml of a 1.5% soluble starch solution (pH 6.9). The resulting solution was allowed to react while maintaining at 37° C. for 10 min. and the reaction was then ceased by adding 2.5 ml of a solution (0.08M HCl and 0.4M acetic acid). To 0.2 ml of the reaction solution was added 2.5 ml of an iodine solution (0.05% KI and 0.005% iodine), and the mixture was measured for absorbance at 660 nm. The amylase was used in an amount sufficient to reduce 80% absorbance when no sample solution was contained and the amount of the amylase inhibitor sufficient to inhibit 50% amylase activity at this time was expressed as 1 amylase inhibitory unit (U).

Molecule | Amylase inhibitory activity (U/mg) [1] | Amylase inhibitory activity [2] | Amylase inhibitory activity ([2]; listed as 0.58 AI)
B1 | 26100 U/mg | – | –
B2 | 20500 U/mg | – | –
B3 | 20300 U/mg | – | –
B4 | 3940 U/mg | – | –
B5 | 840 U/mg | – | –
B6 | – | 3,940 U/mg | less amylase inhibitory activity

Reference: patent US5789380A, “Agents for inhibiting accumulation of visceral fat” (Nisshin Flour Milling Co., Ltd., priority 1996, dated 1998)
